Data on three molecules can be found in patent publication US5516656A, “Production of a new hirudin analog and anticoagulant pharmaceutical composition containing the same” (Nippon Mining Company, Limited, priority 1990, dated 1996).

Data set [1] deals with T1, Thrombin (Homo sapiens, UniProt P00734). In words: Inhibitory action of hirudin against thrombin induced death. The format is in vivo, mice. Further details: Thrombin (10 NIH unit/10 g) was administered intravenously to male mice. To be noted: for Score: score 0 normal, 1 disappearance of roll over reflection, 2 death within 20 minutes. As for the experimental part: Thrombin (10 NIH unit/10 g) was administered intravenously to male mice (20-25 g), without anesthesia, and the anti-thrombin activity of the tested compound was evaluated by observing the disappearance of roll over reflection and death as indexes. All the tested compounds were dissolved in saline, and 0.05 ml/10 g were administered intravenously 5 min prior to the thrombin injection.

A short description of data set [2]: Prolongation of bleeding time (tail vein puncture wound). The format is in vivo, mice. As to conditions: for Bleeding time: wound 5 minutes after administration. As for the experimental part: Samples were injected into male mice (20-25 g) under anesthesia using sodium pentobarbital (40 mg/kg i.p.) via their tail vein. A puncture wound was made by inserting a 21 G needle (outer diameter 0.85 mm) into the other side of the tail vein 5 minutes after the administration of the test compounds, and the bleeding time of the wound was measured. A filter paper was put on the wound, with changes every 15 seconds. Bleeding time is defined as the time required until no red spot is observed on the filter paper.

Data set [3] has as its target T1, Thrombin. In words: anti-thrombin activity, chromogenic substrate chromozyme TH. Details: purchased Sigma. As to conditions: purified by C4 reverse phase HPLC. The format is biochemical. As for the experimental part: Precipitated cells of each sample were suspended in 1 ml of 50 mM Tris-HCl (pH7.5) containing 25% sucrose and 1 mM EDTA, followed by incubation at room temperature for 10 minutes. After collecting the cells by centrifugation at 6,000×g for 10 minutes, the cells were suspended in 1 ml of cold water to release the substances in the periplasmic space by osmotic shock. Cells were removed from the periplasmic fraction by centrifugation at 6,000×g for 10 minutes. The amount of secreted and periplasmically-accumulated hirudin was determined by measuring the anti-thrombin activity in the supernatant. The antithrombin activity is based on quantitative measurement of the color intensity generated by thrombin's hydrolytic activity on the synthetic chromogenic substrate chromozyme TH (Tocylglycil-prolylarginine-4-nitroanilideacetate, Boeringer-Mannheim) and hirudin's inhibitory activity against thrombin, which will repress color generation.
This reaction was carried out as follows. […]
Both the substrate and chromozymeTH were added to a final concentration of 200 μM to measure the release of p-nitroanilide by the increase of absorbance at 405 nm of the solution per 1 minute, and the anti-thrombin activity (ATU) was calculated.

Numbering of substitutions follows the chain as printed.

Turning to “HV1: hirudin variant 1, natural anti-coagulation peptide of Hirudo medicinalis, produced here by secretion from E. coli [reference compound]”, the values for the Score with Thrombin [1] (200 μg/10 g weight i.v. 5 min prior to thrombin 10 NIH unit/10 g) and with Thrombin [1] (500 μg/10 g weight i.v. 5 min prior to thrombin 10 NIH unit/10 g) were 0.6 and 0.4, respectively.

B1: HV1C3: hirudin analog having the hirudin HV1 amino acid sequence up to the 52nd amino acid and thereafter substituted with the sequence of HV3 (protein)
chain: VVYTDCTESGQNLCLCEGSNVCGQGNKCILGSDGEKNQCVTGEGTPKPQSHNQGDFEPIPEDAYDE
As to B1, the figures for the Bleeding time in data set [2] (50 μg/10 g weight i.v.), in data set [2] (100 μg/10 g weight i.v.) and in data set [2] (200 μg/10 g weight i.v.) were 264.0 ± 17.6 s, 291.0 ± 30.2 s and 369.0 ± 34.9 s, respectively. Also, the “bleeding tendency compared with hirudin HV1” value in data set [2] (mice, in words) was “less bleeding than hirudin HV1”. In addition, the Score worked out at 1.2 with Thrombin [1] (20 μg/10 g weight i.v. 5 min prior to thrombin 10 NIH unit/10 g), 0.6 with Thrombin [1] (50 μg/10 g weight i.v. 5 min prior to thrombin 10 NIH unit/10 g) and 0.4 in the data set with Thrombin [1] (100 μg/10 g weight i.v. 5 min prior to thrombin 10 NIH unit/10 g). For the same molecule, the “inhibitory activity compared with hirudin HV1 in thrombin induced death” value with Thrombin [1] (in vivo, mice, relative to HV1) is reported as 4-5 times. Also, in the data set with Thrombin [3], the “anti-thrombin activity (specific / relative activity) of purified product” value is recorded as 11,250 ATU/mg.

B2: HV3: natural hirudin variant of 66 amino acids, produced here by secretion from E. coli (protein)
chain: B1 chain with V1I, V2T, Q24K, D33Q, E35K, K36D
Take B2: the “anti-thrombin activity (specific / relative activity) of purified product” value with Thrombin [3] came out at 8139 ATU/mg.
